± gives the uncertainty stated by the source.

B1: Bromodomain adjacent to zinc finger domain protein 2B, residues 1927 to 1982; numbered along this chain, Q9UIF8 (parent)
chain: KSIMKVYCQICRKGDNEELLLLCDGCDKGCHTYCHRPKITTIPDGDWFCPACIAKA

This data set covers variants of B1. In words: abundance fitness (aPCA) (normalised: wild type 0, dead -1); higher = more abundant; growth selection in yeast, the domain comes from the species named. The settings on record: Homo sapiens.
Regarding KSIMKVYCQICRKGDNEELLLLCDGCDKRCHTYCHRPKITTIPDGDWFCPACIAKA [G29R], the abundance fitness was -0.075 ± 0.064.

Consider KSIMKVYCQICRKGDNEELLLLCDGCDKWCHTYCHRPKITTIPDGDWFCPACIAKA [G29W], for which the abundance fitness is -0.147 ± 0.079.

With KSIMKVYCQICRKGDNEELLLLCDGCDKSCHTYCHRPKITTIPDGDWFCPACIAKA [G29S], the abundance fitness was -0.019 ± 0.074.

KSIMKVYCQICRKGDNEELLLLCDGCDKICHTYCHRPKITTIPDGDWFCPACIAKA [G29I]: the abundance fitness is 0.084 ± 0.22.

On to KSIMKVYCQICRKGDNEELLLLCDGCDKVCHTYCHRPKITTIPDGDWFCPACIAKA [G29V], for which the abundance fitness amounted to 0.002 ± 0.079.

Consider KSIMKVYCQICRKGDNEELLLLCDGCDKPCHTYCHRPKITTIPDGDWFCPACIAKA [G29P], for which the abundance fitness was -0.321 ± 0.11.

With KSIMKVYCQICRKGDNEELLLLCDGCDKCCHTYCHRPKITTIPDGDWFCPACIAKA [G29C], the abundance fitness is 0.004 ± 0.11.

Take KSIMKVYCQICRKGDNEELLLLCDGCDKFCHTYCHRPKITTIPDGDWFCPACIAKA [G29F]: the abundance fitness is -0.035 ± 0.18.

As to KSIMKVYCQICRKGDNEELLLLCDGCDKHCHTYCHRPKITTIPDGDWFCPACIAKA [G29H], the abundance fitness was -0.167 ± 0.17.

As to KSIMKVYCQICRKGDNEELLLLCDGCDKDCHTYCHRPKITTIPDGDWFCPACIAKA [G29D], the abundance fitness was -0.378 ± 0.12.

For KSIMKVYCQICRKGDNEELLLLCDGCDKECHTYCHRPKITTIPDGDWFCPACIAKA [G29E], the abundance fitness is -0.078 ± 0.1.

As to KSIMKVYCQICRKGDNEELLLLCDGCDKNCHTYCHRPKITTIPDGDWFCPACIAKA [G29N], the abundance fitness was -0.013 ± 0.16.

Turning to KSIMKVYCQICRKGDNEELLLLCDGCDKQCHTYCHRPKITTIPDGDWFCPACIAKA [G29Q], the abundance fitness was -0.053 ± 0.11.

On to KSIMKVYCQICRKGDNEELLLLCDGCDKTCHTYCHRPKITTIPDGDWFCPACIAKA [G29T], for which the abundance fitness was -0.088 ± 0.11.

As for KSIMKVYCQICRKGDNEELLLLCDGCDKYCHTYCHRPKITTIPDGDWFCPACIAKA [G29Y], the abundance fitness was -0.093 ± 0.15.

Consider KSIMKVYCQICRKGDNEELLLLCDGCDKMCHTYCHRPKITTIPDGDWFCPACIAKA [G29M], for which the abundance fitness is -0.279 ± 0.12.

Consider KSIMKVYCQICRKGDNEELLLLCDGCDKACHTYCHRPKITTIPDGDWFCPACIAKA [G29A], for which the abundance fitness is -0.061 ± 0.086.

For the variant KSIMKVYCQICRKGDNEELLLLCDGCDKLCHTYCHRPKITTIPDGDWFCPACIAKA [G29L], the abundance fitness was -0.149 ± 0.074.

Consider KSIMKVYCQICRKGDNEELLLLCDGCDKGCHGYCHRPKITTIPDGDWFCPACIAKA [T32G], for which the abundance fitness is -0.118 ± 0.064.

KSIMKVYCQICRKGDNEELLLLCDGCDKGCHKYCHRPKITTIPDGDWFCPACIAKA [T32K]: the abundance fitness was -0.156 ± 0.1.

As to KSIMKVYCQICRKGDNEELLLLCDGCDKGCHMYCHRPKITTIPDGDWFCPACIAKA [T32M], the abundance fitness is -0.048 ± 0.1.

In the case of KSIMKVYCQICRKGDNEELLLLCDGCDKGCHIYCHRPKITTIPDGDWFCPACIAKA [T32I], the abundance fitness was determined as 0.004 ± 0.11.

On to KSIMKVYCQICRKGDNEELLLLCDGCDKGCHFYCHRPKITTIPDGDWFCPACIAKA [T32F], for which the abundance fitness is -0.235 ± 0.14.

For KSIMKVYCQICRKGDNEELLLLCDGCDKGCHAYCHRPKITTIPDGDWFCPACIAKA [T32A], the abundance fitness is -0.065 ± 0.075.

For the variant KSIMKVYCQICRKGDNEELLLLCDGCDKGCHVYCHRPKITTIPDGDWFCPACIAKA [T32V], the abundance fitness was -0.053 ± 0.079.

As to KSIMKVYCQICRKGDNEELLLLCDGCDKGCHEYCHRPKITTIPDGDWFCPACIAKA [T32E], the abundance fitness is -0.27 ± 0.097.

KSIMKVYCQICRKGDNEELLLLCDGCDKGCHPYCHRPKITTIPDGDWFCPACIAKA [T32P]: the abundance fitness is -0.271 ± 0.11.

For the variant KSIMKVYCQICRKGDNEELLLLCDGCDKGCHHYCHRPKITTIPDGDWFCPACIAKA [T32H], the abundance fitness was -0.111 ± 0.16.

In the case of KSIMKVYCQICRKGDNEELLLLCDGCDKGCHQYCHRPKITTIPDGDWFCPACIAKA [T32Q], the abundance fitness is -0.131 ± 0.12.

For the variant KSIMKVYCQICRKGDNEELLLLCDGCDKGCHSYCHRPKITTIPDGDWFCPACIAKA [T32S], the abundance fitness was 0.052 ± 0.091.

Regarding KSIMKVYCQICRKGDNEELLLLCDGCDKGCHNYCHRPKITTIPDGDWFCPACIAKA [T32N], the abundance fitness was -0.133 ± 0.2.

Consider KSIMKVYCQICRKGDNEELLLLCDGCDKGCHWYCHRPKITTIPDGDWFCPACIAKA [T32W], for which the abundance fitness is -0.141 ± 0.096.

For the variant KSIMKVYCQICRKGDNEELLLLCDGCDKGCHLYCHRPKITTIPDGDWFCPACIAKA [T32L], the abundance fitness stood at 0.026 ± 0.079.

Regarding KSIMKVYCQICRKGDNEELLLLCDGCDKGCHRYCHRPKITTIPDGDWFCPACIAKA [T32R], the abundance fitness is -0.078 ± 0.071.

As for KSIMKVYCQICRKGDNEELLLLCDGCDKGCHYYCHRPKITTIPDGDWFCPACIAKA [T32Y], the abundance fitness is -0.019 ± 0.17.

As to KSIMKVYCQICRKGDNEELLLLCDGCDKGCHCYCHRPKITTIPDGDWFCPACIAKA [T32C], the abundance fitness is -0.333 ± 0.11.

For the variant KSIMKVYCQICRKGDNEELLLLCDGCDKGCHTKCHRPKITTIPDGDWFCPACIAKA [Y33K], the abundance fitness was -0.123 ± 0.1.

For the variant KSIMKVYCQICRKGDNEELLLLCDGCDKGCHTLCHRPKITTIPDGDWFCPACIAKA [Y33L], the abundance fitness was -0.202 ± 0.07.

Turning to KSIMKVYCQICRKGDNEELLLLCDGCDKGCHTDCHRPKITTIPDGDWFCPACIAKA [Y33D], the abundance fitness is -0.123 ± 0.11.

In the case of KSIMKVYCQICRKGDNEELLLLCDGCDKGCHTFCHRPKITTIPDGDWFCPACIAKA [Y33F], the abundance fitness was -0.154 ± 0.17.

Take KSIMKVYCQICRKGDNEELLLLCDGCDKGCHTNCHRPKITTIPDGDWFCPACIAKA [Y33N]: the abundance fitness is -0.213 ± 0.16.

As to KSIMKVYCQICRKGDNEELLLLCDGCDKGCHTHCHRPKITTIPDGDWFCPACIAKA [Y33H], the abundance fitness is -0.111 ± 0.14.

Take KSIMKVYCQICRKGDNEELLLLCDGCDKGCHTACHRPKITTIPDGDWFCPACIAKA [Y33A]: the abundance fitness is -0.105 ± 0.074.

Take KSIMKVYCQICRKGDNEELLLLCDGCDKGCHTECHRPKITTIPDGDWFCPACIAKA [Y33E]: the abundance fitness is -0.058 ± 0.09.

KSIMKVYCQICRKGDNEELLLLCDGCDKGCHTICHRPKITTIPDGDWFCPACIAKA [Y33I]: the abundance fitness was -0.223 ± 0.18.

Take KSIMKVYCQICRKGDNEELLLLCDGCDKGCHTCCHRPKITTIPDGDWFCPACIAKA [Y33C]: the abundance fitness is -0.289 ± 0.13.

KSIMKVYCQICRKGDNEELLLLCDGCDKGRHTYCHRPKITTIPDGDWFCPACIAKA [C30R]: the abundance fitness is -0.023 ± 0.064.
